Measured values taken from patent US20190218277A1 (Chugai, published 2019).
Changes are numbered by the printed parent chain. Where two headings read alike, the source gives them in different places.

Assays:
[1] = molecular target: T1, Recombinant soluble E protein (0.8E-His) from DENV-1 (DENV-1, UniProt P27909 281-675)
T1 construct: also called DENV-1 E protein; DV1

[2] = molecular target: T2, Recombinant soluble E protein (0.8E-His) from DENV-4 (DENV-4, UniProt P09866 280-674); test: SPR, Biacore T200
T2 construct: also called DENV-4 E protein; DV4

[3] = molecular target: T3, Recombinant soluble E protein (0.8E-His) from DENV-2 (DENV-2, UniProt P14340 281-675); test: SPR, Biacore T200
T3 construct: also called DENV-2 E protein; DV2

[4] = molecular target: T4, Recombinant soluble E protein (0.8E-His) from DENV-3 (DENV-3, UniProt P27915 281-673)
T4 construct: also called DENV-3 E protein; DV3

[5] = molecular target: T2, Recombinant soluble E protein …
[6] = molecular target: T1, Recombinant soluble E protein …; remark: listed apart in the source
[7] = molecular target: T4, Recombinant soluble E protein …; remark: listed apart in the source
[8] = molecular target: T3, Recombinant soluble E protein …
human C1q (Calbiochem) = human C1q (Calbiochem) (human, UniProt P02745 23-245; P02746 28-253; P02747 29-245); test: ELISA: antibody coated on the plate at the concentration shown, human C1q added, detected with HRP anti-human C1q, OD 450 nm
human FcγRIIIb (NA1) = molecular target: T5, human FcγRIIIb (NA1) (human, UniProt O75015 17-200); test: SPR (Biacore T200, pH 7.4, 25 °C): His-tagged FcγR captured by anti-His antibody; antibody injected at 100 nM alone (Ab alone) or as 1:1 complex with trimeric CD154 (CD154 IC); binding level / capture level [G]
T5 construct: also called human FcγR3b allelic variant NA1
T5 chain: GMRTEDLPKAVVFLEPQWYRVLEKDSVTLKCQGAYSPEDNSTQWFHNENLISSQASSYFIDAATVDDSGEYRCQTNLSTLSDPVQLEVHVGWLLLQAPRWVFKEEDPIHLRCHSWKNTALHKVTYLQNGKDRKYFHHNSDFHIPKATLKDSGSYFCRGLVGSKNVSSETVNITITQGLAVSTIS

human FcγRIIIa (158V) = molecular target: T6, human FcγRIIIa (158V) (human, UniProt P08637 17-208); test: SPR (Biacore T200, pH 7.4, 25 °C): His-tagged FcγR captured by anti-His antibody; antibody injected at 100 nM alone (Ab alone) or as 1:1 complex with trimeric CD154 (CD154 IC); binding level / capture level [F]
T6 construct: also called human FcγR3a allelic variant 158V

human FcγRIa = molecular target: T7, human FcγRIa (human, UniProt P12314 16-292); test: SPR (Biacore T200, pH 7.4, 25 °C): His-tagged FcγR captured by anti-His antibody; antibody injected at 100 nM alone (Ab alone) or as 1:1 complex with trimeric CD154 (CD154 IC); binding level / capture level [A]
T7 construct: also called human FcγR1a

mouse FcγRIII = molecular target: T8, mouse FcγRIII (mouse, UniProt P08508 31-215); test: SPR (Biacore T200, pH 7.4, 25 °C): His-tagged FcγR captured by anti-His antibody; antibody injected at 100 nM alone (Ab alone) or as 1:1 complex with trimeric CD154 (CD154 IC); binding level / capture level [C]
T8 construct: also called mFcγRIII; mouse FcγR3
T8 chain: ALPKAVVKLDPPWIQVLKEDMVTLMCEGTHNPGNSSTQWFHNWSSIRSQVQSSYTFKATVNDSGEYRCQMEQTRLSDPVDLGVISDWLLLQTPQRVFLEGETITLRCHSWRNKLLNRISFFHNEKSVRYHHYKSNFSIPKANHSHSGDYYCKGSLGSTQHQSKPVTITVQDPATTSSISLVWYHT

mouse FcγRI = molecular target: T9, mouse FcγRI (mouse, UniProt P26151 25-297); test: SPR (Biacore T200, pH 7.4, 25 °C): His-tagged FcγR captured by anti-His antibody; antibody injected at 100 nM alone (Ab alone) or as 1:1 complex with trimeric CD154 (CD154 IC); binding level / capture level [A]
T9 construct: also called mFcγRI; mouse FcγR1
T9 sequence: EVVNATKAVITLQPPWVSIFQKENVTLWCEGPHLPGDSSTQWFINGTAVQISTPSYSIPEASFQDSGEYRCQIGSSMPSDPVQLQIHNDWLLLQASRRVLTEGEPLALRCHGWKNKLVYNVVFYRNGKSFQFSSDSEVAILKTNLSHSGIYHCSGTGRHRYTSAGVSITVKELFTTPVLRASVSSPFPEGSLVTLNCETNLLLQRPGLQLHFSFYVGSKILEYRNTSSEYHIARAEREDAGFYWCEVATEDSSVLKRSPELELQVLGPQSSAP

human FcγRIIb = molecular target: T10, human FcγRIIb (human, UniProt P31994 43-217); test: SPR (Biacore T200, pH 7.4, 25 °C): His-tagged FcγR captured by anti-His antibody; antibody injected at 100 nM alone (Ab alone) or as 1:1 complex with trimeric CD154 (CD154 IC); binding level / capture level [D]
T10 construct: also called human FcγR2b
T10 sequence: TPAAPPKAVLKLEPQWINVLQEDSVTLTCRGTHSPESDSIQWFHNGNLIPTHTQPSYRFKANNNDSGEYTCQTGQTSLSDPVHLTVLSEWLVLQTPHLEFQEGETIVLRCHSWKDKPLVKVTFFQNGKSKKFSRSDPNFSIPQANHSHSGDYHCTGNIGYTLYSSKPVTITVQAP

mouse FcγRIV = molecular target: T11, mouse FcγRIV (mouse, UniProt A0A0B4J1G0 21-203); test: as above
T11 construct: also called mFcγRIV; mouse FcγR4
T11 sequence: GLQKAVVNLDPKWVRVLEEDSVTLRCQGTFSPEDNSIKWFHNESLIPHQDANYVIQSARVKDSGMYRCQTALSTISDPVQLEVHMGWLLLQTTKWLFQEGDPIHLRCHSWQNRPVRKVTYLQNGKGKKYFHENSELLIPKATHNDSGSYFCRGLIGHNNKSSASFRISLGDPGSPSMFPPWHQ

Sequence of human C1q (Calbiochem) (P02745 23-245 limits assumed, chain 1 of 3): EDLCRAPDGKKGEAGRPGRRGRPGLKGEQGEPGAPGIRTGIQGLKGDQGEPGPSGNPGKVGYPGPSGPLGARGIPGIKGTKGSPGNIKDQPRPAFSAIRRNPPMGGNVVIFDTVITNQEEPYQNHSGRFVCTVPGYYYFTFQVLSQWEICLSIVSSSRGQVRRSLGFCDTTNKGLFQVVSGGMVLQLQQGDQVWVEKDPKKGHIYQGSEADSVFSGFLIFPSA
Sequence of human C1q (Calbiochem) (P02746 28-253 limits assumed, chain 2 of 3): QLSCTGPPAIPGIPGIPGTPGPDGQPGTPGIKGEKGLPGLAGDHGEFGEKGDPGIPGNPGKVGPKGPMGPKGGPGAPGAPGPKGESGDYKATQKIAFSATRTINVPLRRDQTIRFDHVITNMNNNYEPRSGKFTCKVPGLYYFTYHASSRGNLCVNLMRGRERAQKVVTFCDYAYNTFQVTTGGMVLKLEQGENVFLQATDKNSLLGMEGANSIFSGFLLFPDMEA
Sequence of human C1q (Calbiochem) (P02747 29-245 limits assumed, chain 3 of 3): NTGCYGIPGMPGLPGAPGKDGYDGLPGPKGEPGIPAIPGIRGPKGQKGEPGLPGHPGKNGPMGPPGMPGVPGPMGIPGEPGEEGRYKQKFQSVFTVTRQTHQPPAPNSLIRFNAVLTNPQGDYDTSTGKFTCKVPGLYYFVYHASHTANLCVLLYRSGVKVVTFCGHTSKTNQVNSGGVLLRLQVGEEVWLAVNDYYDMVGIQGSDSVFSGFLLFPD
T7 sequence (P12314 16-292 limits assumed): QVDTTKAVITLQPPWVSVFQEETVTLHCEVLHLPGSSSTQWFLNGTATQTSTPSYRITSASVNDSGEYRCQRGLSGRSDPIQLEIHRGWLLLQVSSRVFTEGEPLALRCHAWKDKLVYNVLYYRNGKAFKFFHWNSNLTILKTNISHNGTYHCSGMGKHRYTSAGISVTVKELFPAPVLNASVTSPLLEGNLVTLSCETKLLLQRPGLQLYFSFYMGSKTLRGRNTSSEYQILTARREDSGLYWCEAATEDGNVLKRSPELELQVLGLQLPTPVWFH

B1: DG_3CH1000-SG1106/3CL-SK1 (antibody)
heavy: QVQLVQSGPDVEKPGASVKVSCKASGYTFTSYYMHWVRQAPGQGLEWMGVINPRGGSRRSAQKFQGRITMTRDTSTSTVYMELSSLRSEDTAVYYCARGGRALFYDSYTTPFDGGSWWFDPWGQGSLVTVSSASTKGPSVFPLAPSSKSTSGGTAALGCLVKDYFPEPVTVSWNSGALTSGVHTFPAVLQSSGLYSLSSVVTVPSSSLGTQTYICNVNHKPSNTKVDKRVEPKSCDKTHTCPPCPAPEAAGGPSVFLFPPKPKDTLMISRTPEVTCVVVDVSHEDPEVKFNWYVDGVEVHNAKTKPREEQYNSTYRVVSVLTVLHQDWLNGKEYKCKVSNAALPAPISKTISKAKGQPREPQVYTLPPSREEMTKNQVSLTCLVKGFYPSDIAVEWESNGQPENNYKTTPPVLDSDGSFFLYSKLTVDKSRWQQGNVFSCSVLHEALHAHYTRKELSLSP
light: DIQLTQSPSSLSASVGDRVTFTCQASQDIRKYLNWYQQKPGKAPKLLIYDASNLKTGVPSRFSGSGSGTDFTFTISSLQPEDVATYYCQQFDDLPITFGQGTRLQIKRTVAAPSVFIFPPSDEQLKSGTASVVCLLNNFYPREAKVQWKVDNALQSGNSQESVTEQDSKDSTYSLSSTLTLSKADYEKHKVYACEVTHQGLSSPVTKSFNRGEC
For B1, the Kd [1] was 1.84 nM, the binding result [2] was “binds” and the binding result [3] was “binds”. The Kd [4] was 0.000299 nM.

B2: DG_3CH953-SG1106/3CL012-SK1 (antibody)
heavy: B1 heavy with Y32N, M34I
light: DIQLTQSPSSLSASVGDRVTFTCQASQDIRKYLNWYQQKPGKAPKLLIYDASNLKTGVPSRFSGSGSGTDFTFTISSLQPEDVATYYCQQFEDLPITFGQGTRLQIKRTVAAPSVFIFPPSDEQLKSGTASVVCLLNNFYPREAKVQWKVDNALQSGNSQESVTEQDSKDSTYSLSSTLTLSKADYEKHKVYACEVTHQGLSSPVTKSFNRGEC
For B2, the Kd [1] was 1.89 nM, the binding result [2] was “binds” and the binding result [3] was “binds”. The Kd [4] was 0.0106 nM.

B3: DG_3CH-SG182/3CL-SK1 (antibody, human IgG1, kappa, V domains shown)
VH: QVQLVQSGPDVEKPGASVKVSCKASGYTFTSNYIHWVRQAPGQGLEWMGVINPRGGSTASAQKFQGRITMTRDTSTSTVYMELSSLRSDDTAVYYCARGGRALFYDSYTTPRDGGSWWFDPWGQGSLVTVSS
VL: DIQLTQSPSSLSASVGDRVTFTCQASQDIRKYLNWYQQKPGKAPKLLIYDASNLKTGVPSRFSGSGSGTDFTFTISSLQPEDVATYYCQQFDDLPITFGQGTRLQIKR
With B3 the Kd [1] was 22.5 nM, the Kd [5] was 16.9 nM and the Kd [6] was 32.1 nM. It also gave a Kd [7] of 6.07 nM.

B4: DG_3CH-SG182/3CL499-SK1 (antibody, V domains shown)
VH: B3 VH
VL: B3 VL with T56F, D93A
B4 showed a Kd [5] of 8.35 nM, a Kd [6] of 11.1 nM and a Kd [7] of 4.03 nM. It also gave a Kd [8] of 4.73 nM.

B5: DG_3CH-SG182/3CL563-SK1 (antibody, V domains shown)
VH: B3 VH
VL: B3 VL with K31Q, T56F, D92S, D93A
With B5 the Kd [5] was 11.8 nM, the Kd [6] was 13.4 nM and the Kd [7] was 3.52 nM. It also gave a Kd [8] of 4.43 nM.

B6: DG_3CH953-SG182/3CL499-SK1 (antibody, V domains shown)
VH: B3 VH with T58R, A59R, D89E, R112F
VL: B3 VL with T56F, D93A
Work on B6 yielded a Kd [5] of 5.99 nM, a Kd [6] of 1.46 nM and a Kd [7] of 0.211 nM. For the same binder, the Kd [8] was 0.905 nM.

B7: DG_3CH954-SG182/3CL-SK1 (antibody, V domains shown)
VH: B3 VH with T58R, A59R, D89E, G114D
VL: B3 VL
With B7 the Kd [5] was 4.35 nM, the Kd [6] was 0.887 nM and the Kd [7] was 0.124 nM. The Kd [8] was 0.122 nM.

B8: DG_3CH955-SG182/3CL-SK1 (antibody, V domains shown)
VH: B3 VH with T58R, A59R, D89E, G114L
VL: B3 VL
With B8 the Kd [5] was 7.8 nM, the Kd [6] was 1.13 nM and the Kd [7] was 0.205 nM. It also gave a Kd [8] of 0.794 nM.

B9: Anti-CD154 antibody (SLAPH0336a/SLAPL0336a) with Fc variant LALA+KEES (SG1097) (antibody, human IgG1, kappa, L234A L235A)
heavy: EVQLVESGGGSVKPGGSLKLSCAASGFTFSDHYMYWVRQTPEKRLEWVAIISGGGSYTSYPDSMKGRFTISRDNAKNILHLQMSSLKSEDTAMYYCTRESNGKPGFAYWGQGTLVTVSAASTKGPSVFPLAPSSKSTSGGTAALGCLVKDYFPEPVTVSWNSGALTSGVHTFPAVLQSSGLYSLSSVVTVPSSSLGTQTYICNVNHKPSNTKVDKRVEPKSCDKTHTCPPCPAPEAAGGPSVFLFPPKPKDTLMISRTPEVTCVVVDVSHEDPEVKFNWYVDGVEVHNAKTKPREEQYNSTYRVVSVLTVLHQDWLNGKEYKCKVSNEALPAPISKTISKAKGQPREPQVYTLPPSREEMTKNQVSLTCLVKGFYPSDIAVEWESNGQPENNYKTTPPVLDSDGSFFLYSKLTVDKSRWQQGNVFSCSVMHEALHNHYTQKSLSLSP
light: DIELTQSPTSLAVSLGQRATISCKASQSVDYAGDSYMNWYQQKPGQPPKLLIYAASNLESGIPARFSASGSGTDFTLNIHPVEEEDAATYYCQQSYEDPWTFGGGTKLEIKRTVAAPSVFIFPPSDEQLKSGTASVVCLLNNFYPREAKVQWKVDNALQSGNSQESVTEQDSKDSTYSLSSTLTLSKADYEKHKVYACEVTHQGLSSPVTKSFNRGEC
B9: binds (human C1q (Calbiochem)).

B10: EFT (antibody, human IgG1, kappa)
heavy chain: B9 heavy with A236L, A237L, S269E, H270F, S326T, E328K, S335E
light chain: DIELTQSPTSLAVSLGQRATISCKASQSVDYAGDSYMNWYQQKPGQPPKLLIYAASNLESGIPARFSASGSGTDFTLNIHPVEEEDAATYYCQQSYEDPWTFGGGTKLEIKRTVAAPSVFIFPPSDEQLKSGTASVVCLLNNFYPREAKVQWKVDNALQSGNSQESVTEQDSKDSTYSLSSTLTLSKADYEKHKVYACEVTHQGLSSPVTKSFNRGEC
notes: also called Anti-CD154 antibody (SLAPH0336a/SLAPL0336a) with Fc variant EFT (SG1087); SG1087
B10: no binding (tested: 100 nM) (human FcγRIIIb (NA1)); binds (human FcγRIIIa (158V)); binds (human FcγRIa). B10: binds (mouse FcγRIII); binds (mouse FcγRI); binds (human FcγRIIb). B10: binds (mouse FcγRIV).

B11: LALA + KDES (antibody, human IgG1, kappa, L234A L235A)
heavy chain: B9 heavy with E328D
light chain: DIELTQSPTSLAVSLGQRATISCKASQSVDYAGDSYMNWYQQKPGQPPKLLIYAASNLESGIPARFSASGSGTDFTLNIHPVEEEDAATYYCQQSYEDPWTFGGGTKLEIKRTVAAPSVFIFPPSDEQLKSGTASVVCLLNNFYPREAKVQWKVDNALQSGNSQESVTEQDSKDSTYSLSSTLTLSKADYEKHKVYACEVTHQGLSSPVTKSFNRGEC
notes: also called Anti-CD154 antibody (SLAPH0336a/SLAPL0336a) with Fc variant LALA+KDES (SG1096); SG1096
B11: binds (human C1q (Calbiochem)).

B12: Anti-CD154 antibody (SLAPH0336a/SLAPL0336a) with Fc variant LALA+KMES (SG1098) (antibody, human IgG1, kappa, L234A L235A)
heavy: B9 heavy with E328M
light: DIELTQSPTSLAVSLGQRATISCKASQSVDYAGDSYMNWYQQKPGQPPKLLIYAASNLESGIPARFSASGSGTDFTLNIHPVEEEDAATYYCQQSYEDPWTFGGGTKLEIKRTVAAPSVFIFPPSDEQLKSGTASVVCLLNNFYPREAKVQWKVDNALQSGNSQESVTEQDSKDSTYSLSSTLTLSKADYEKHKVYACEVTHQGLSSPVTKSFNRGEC
B12: binds (human C1q (Calbiochem)).
